Data on two substances can be found in publication PMC8439657.

Assay [1] deals with mTORC1 (wild-type human mTOR, RAPTOR, mLST8), Strep tag removed (human) (UniProt P42345).
Assay [2] has the same target. The source holds these as a separate data set.
For assay [3], the target named is mTOR^ΔN-mLST8 complex (human) (UniProt P42345).
Assay [4] addresses mTORC1 (wild-type human mTOR, RAPTOR, mLST8), Strep tag removed (human) (UniProt P42345). The source holds these as a separate data set.
For assay [5], the target named is Twin-Strep-tagged activated mTORC1 mutant A1459P (human) (UniProt P42345). Put plainly: SPR; Biacore T200, CM5 chip; Twin-Strep-tagged mTORC1 captured on Strep-Tactin XT; DEPTOR PDZ (305-409) injected 120 s, 300 s dissociation, 1:2 dilution series from 20 µM; 50 mM HEPES pH 7.5, 100 mM NaCl, 1 mM TCEP; equilibrium responses fit to one-site specific binding with a linear non-specific component. Background: Surface plasmon resonance follows binding to a sensor surface in real time, without labels.

In assay [6] the target is Twin-Strep-tagged wild-type mTORC1 (human) (UniProt P42345). The description is as above.

Take “DEPTOR (DEP-domain containing mTOR-interacting protein), full length, residues 1-409 (from UniProt Q8TB45 1-409) (natural protein)”: in assay [1], the IC50 of inhibition of mTORC1 kinase activity, phosphorylation of GST-S6K1 367-404 peptide (western blot, p-S6K1 Thr389) worked out at 51 µM and the IC50 of inhibition of mTORC1 kinase activity, phosphorylation of wild-type 4EBP1 (western blot, p-4EBP1 Thr37/46) stood at 14 µM. This substance came in with an IC50 of inhibition of mTORC1 phosphorylation of the TOS-less 4EBP1 mutant, against wild-type 4EBP1 in assay [2] of 2 fold. In assay [3], this substance showed an IC50 of inhibition of the kinase activity of monomeric mTOR^ΔN-mLST8 of 0.4 µM. For the same substance, the fold decrease of the IC50 of DEPTOR inhibition of 4EBP1 phosphorylation in the presence of RHEB-GTP, against mTORC1 alone in assay [4] came to 400 fold.

On to “DEPTOR short-linker PDZ, residues 305-409 (from UniProt Q8TB45 305-409) (domain or fragment)”, for which the equilibrium dissociation constant (Kd) – broadly, the equilibrium constant for the complex coming apart – was 0.6 µM in assay [5] and 7 µM in assay [6].
